Reference: patent US20190085055A1
One block for each substance: values may come before it.

Assays:
D3H44 light chain L135W [1] = experiment: LCCA (SPR), competitor L2 F116A_L135V
[2] = target: D3H44 light chain F116A_L135A; experiment: LCCA (SPR), competitor L1 L135W_N137A
[3] = target: D3H44 light chain L135W_N137A; experiment: LCCA (SPR), competitor L2 F116A_L135A
D3H44 light chain L135W [4] = experiment: LCCA (SPR), competitor L2 F116A_L135A
[5] = target: D3H44 light chain F116A_L135V; experiment: LCCA (SPR), competitor L1 L135W
[6] = target: D3H44 light chain F116A_L135A; experiment: LCCA (SPR), competitor L1 L135W
[7] = target: tissue factor extracellular domains (human) (UniProt P13726); experiment: SPR, TF immobilised, purified Fab as analyte, 1:1 model
D3H44 light chain F98A [8] = experiment: LCCA (SPR), competitor L1 Q38R
D3H44 light chain F98W [9] = experiment: LCCA (SPR), competitor L1 F98L
D3H44 light chain F98L [10] = experiment: LCCA (SPR), competitor L2 F98W
D3H44 light chain F98L [11] = experiment: LCCA (SPR), competitor L1 P44W
D3H44 light chain P44W [12] = experiment: LCCA (SPR), competitor L2 F98L
[13] = target: D3H44 light chain, wild type; experiment: LCCA (SPR), competitor L2 F118W_V133S
D3H44 light chain F116A [14] = experiment: LCCA (SPR), competitor L2 F118W_V133S
[15] = target: D3H44 light chain F118W_V133S; experiment: LCCA (SPR), competitor L1 WT
[16] = target: D3H44 light chain F118W_V133S; experiment: LCCA (SPR), competitor L1 F116A
D3H44 light chain F98L [17] = experiment: LCCA (SPR), competitor L2 P44W
D3H44 light chain P44W [18] = experiment: LCCA (SPR), competitor L1 F98L
[19] = target: D3H44 light chain Q38N_T85K; experiment: LCCA (SPR), competitor L1 Q38N_T85E
D3H44 light chain Q38R = experiment: LCCA (SPR), competitor L2 Q38D
[20] = target: D3H44 light chain Q38N_T85E; experiment: LCCA (SPR), competitor L2 Q38N_T85K
D3H44 light chain Q38D = experiment: LCCA (SPR), competitor L1 Q38R
[21] = target: D3H44 light chain F118W_V133S; experiment: LCCA (SPR), competitor L1 F116S
D3H44 light chain F116S = experiment: LCCA (SPR), competitor L2 F118W_V133S
D3H44 light chain F98W [22] = experiment: LCCA (SPR), competitor L1 P44W
D3H44 light chain F98A [23] = experiment: LCCA (SPR), competitor L1 P44W
D3H44 light chain P44W [24] = experiment: LCCA (SPR), competitor L1 Y87G
D3H44 light chain Y87G = experiment: LCCA (SPR), competitor L2 P44W
D3H44 light chain P44W [25] = experiment: LCCA (SPR), competitor L2 F98W
D3H44 light chain P44W [26] = experiment: LCCA (SPR), competitor L2 F98A
[27] = target: D3H44 light chain, wild type; experiment: LCCA (SPR), competitor L2 F116A
D3H44 light chain F116A [28] = experiment: LCCA (SPR), competitor L1 WT

Sequence of D3H44 light chain Q38N_T85E (light, as listed by the source limits assumed): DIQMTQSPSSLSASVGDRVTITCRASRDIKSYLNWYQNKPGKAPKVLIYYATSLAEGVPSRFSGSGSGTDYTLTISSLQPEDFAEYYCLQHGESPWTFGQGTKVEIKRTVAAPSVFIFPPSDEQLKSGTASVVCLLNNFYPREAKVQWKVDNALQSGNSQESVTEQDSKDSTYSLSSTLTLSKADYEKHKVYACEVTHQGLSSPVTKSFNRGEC
Sequence of D3H44 light chain, wild type (light, as listed by the source): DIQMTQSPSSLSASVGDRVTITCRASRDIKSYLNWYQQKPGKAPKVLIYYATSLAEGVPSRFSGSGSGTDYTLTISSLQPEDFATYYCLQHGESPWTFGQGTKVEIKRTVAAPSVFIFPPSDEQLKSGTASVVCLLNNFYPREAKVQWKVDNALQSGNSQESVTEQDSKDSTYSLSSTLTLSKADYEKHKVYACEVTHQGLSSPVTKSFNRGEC
Sequence of tissue factor extracellular domains (human) (P13726 33-251): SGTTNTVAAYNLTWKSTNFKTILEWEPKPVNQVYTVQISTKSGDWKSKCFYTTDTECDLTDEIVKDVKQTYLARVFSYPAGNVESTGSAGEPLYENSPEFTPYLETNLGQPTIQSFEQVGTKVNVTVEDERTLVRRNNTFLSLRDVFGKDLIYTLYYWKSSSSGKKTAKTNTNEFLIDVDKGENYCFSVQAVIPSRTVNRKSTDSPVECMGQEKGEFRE
Sequence of D3H44 light chain Q38N_T85K (light, as listed by the source limits assumed): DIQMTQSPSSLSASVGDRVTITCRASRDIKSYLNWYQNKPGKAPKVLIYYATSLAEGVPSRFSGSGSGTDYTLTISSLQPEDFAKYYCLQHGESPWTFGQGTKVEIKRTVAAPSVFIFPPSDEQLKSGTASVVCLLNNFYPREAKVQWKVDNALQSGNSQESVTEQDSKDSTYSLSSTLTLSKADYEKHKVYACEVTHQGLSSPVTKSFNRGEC
Sequence of D3H44 light chain L135W (light, as listed by the source): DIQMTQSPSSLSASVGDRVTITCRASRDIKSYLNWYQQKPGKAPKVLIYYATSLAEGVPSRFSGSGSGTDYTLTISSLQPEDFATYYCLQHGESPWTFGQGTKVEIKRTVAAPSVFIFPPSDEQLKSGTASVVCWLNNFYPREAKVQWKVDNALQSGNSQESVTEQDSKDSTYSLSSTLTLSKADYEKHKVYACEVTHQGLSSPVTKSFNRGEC
Sequence of D3H44 light chain Q38D (light, as listed by the source limits assumed): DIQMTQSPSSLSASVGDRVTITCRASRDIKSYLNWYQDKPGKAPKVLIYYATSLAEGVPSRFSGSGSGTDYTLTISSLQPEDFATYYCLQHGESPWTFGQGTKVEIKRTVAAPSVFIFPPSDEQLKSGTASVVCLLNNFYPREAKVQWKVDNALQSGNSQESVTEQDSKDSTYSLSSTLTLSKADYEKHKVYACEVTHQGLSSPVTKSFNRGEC
Sequence of D3H44 light chain Q38R (light, as listed by the source): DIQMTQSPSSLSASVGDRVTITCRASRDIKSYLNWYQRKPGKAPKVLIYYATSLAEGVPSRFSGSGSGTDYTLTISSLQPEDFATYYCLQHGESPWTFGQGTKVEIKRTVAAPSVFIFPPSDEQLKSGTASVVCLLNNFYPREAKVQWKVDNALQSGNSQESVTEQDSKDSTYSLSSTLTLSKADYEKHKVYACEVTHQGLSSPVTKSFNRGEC
Sequence of D3H44 light chain Y87G (light, as listed by the source limits assumed): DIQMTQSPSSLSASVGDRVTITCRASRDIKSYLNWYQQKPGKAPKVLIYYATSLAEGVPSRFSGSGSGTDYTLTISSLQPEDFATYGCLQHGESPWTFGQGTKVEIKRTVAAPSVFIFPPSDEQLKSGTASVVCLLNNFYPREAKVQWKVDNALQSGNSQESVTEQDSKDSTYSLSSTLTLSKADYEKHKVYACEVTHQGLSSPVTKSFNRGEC

- H1 L1 of H1 L1:H1 L2 (screen) (D3H44 light chain L135W [1]): 68.4
- H1 L1 of H1 L1:H1 L2 (verification) (D3H44 light chain L135W [1]): 49
- H1 L2 of H1 L1:H1 L2 (screen) [2]: 5.16
- H1 L1 of H1 L1:H1 L2 (screen) [3]: 70.5
- H1 L1 of H1 L1:H1 L2 (screen) (D3H44 light chain L135W [4]): 65
- H1 L1 of H1 L1:H1 L2 (verification) (D3H44 light chain L135W [4]): 69.5
- H1 L2 of H1 L1:H1 L2 (screen) [5]: 13.8
- H1 L2 of H1 L1:H1 L2 (verification) [5]: 48.3
- H1 L2 of H1 L1:H1 L2 (screen) [6]: 10.1
- H1 L2 of H1 L1:H1 L2 (verification) [6]: 10.6
Substance: D3H44 heavy chain (Fab format) A139G_V190A

- Kd [7]: 0.04 nM
Substance: D3H44 Fab Design 11 H2-L2 (H2 F174V_P175S_S188G, L2 S176L)

- H1 L2 of H1 L1:H1 L2 (screen) (D3H44 light chain F98A [8]): 29.7
- H1 L2 of H1 L1:H1 L2 (verification) (D3H44 light chain F98A [8]): 7.2
Substance: D3H44 heavy chain (Fab format) Q39E

- H1 L2 of H1 L1:H1 L2 (screen) (D3H44 light chain F98W [9]): 14.8
- H1 L2 of H1 L1:H1 L2 (verification) (D3H44 light chain F98W [9]): 27.7
- H1 L1 of H1 L1:H1 L2 (screen) (D3H44 light chain F98L [10]): 64.2
- H1 L1 of H1 L1:H1 L2 (verification) (D3H44 light chain F98L [10]): 38.2
Substance: D3H44 heavy chain (Fab format) V37W_W103F

- H2 L2 of H2 L2:H2 L1 (screen) (D3H44 light chain F98L [11]): 67.3
- H2 L2 of H2 L2:H2 L1 (verification) (D3H44 light chain F98L [11]): 30.5
- H2 L1 of H2 L2:H2 L1 (screen) (D3H44 light chain P44W [12]): 26.9
- H2 L1 of H2 L2:H2 L1 (verification) (D3H44 light chain P44W [12]): 47.9
Substance: D3H44 heavy chain (Fab format) V37I_F100W

- H1 L1 of H1 L1:H1 L2 (screen) [13]: 58.8
- H1 L1 of H1 L1:H1 L2 (verification) [13]: 52.2
- H1 L1 of H1 L1:H1 L2 (screen) (D3H44 light chain F116A [14]): 68.7
- H1 L1 of H1 L1:H1 L2 (verification) (D3H44 light chain F116A [14]): 42.1
- H1 L2 of H1 L1:H1 L2 (screen) [15]: 35.2
- H1 L2 of H1 L1:H1 L2 (verification) [15]: 8.66
- H1 L2 of H1 L1:H1 L2 (screen) [16]: 35.1
- H1 L2 of H1 L1:H1 L2 (verification) [16]: 10.1
Substance: D3H44 heavy chain (Fab format) A139V_V190S

- H1 L1 of H1 L1:H1 L2 (screen) (D3H44 light chain F98L [17]): 48.3
- H1 L1 of H1 L1:H1 L2 (verification) (D3H44 light chain F98L [17]): 56
- H1 L2 of H1 L1:H1 L2 (screen) (D3H44 light chain P44W [18]): 29.2
- H1 L2 of H1 L1:H1 L2 (verification) (D3H44 light chain P44W [18]): 21.2
- H1 L2 of H1 L1:H1 L2 (screen) (D3H44 light chain F98W [9]): 30
- H1 L2 of H1 L1:H1 L2 (verification) (D3H44 light chain F98W [9]): 30.5
- H1 L1 of H1 L1:H1 L2 (screen) (D3H44 light chain F98L [10]): 57.2
- H1 L1 of H1 L1:H1 L2 (verification) (D3H44 light chain F98L [10]): 62.3
Substance: D3H44 heavy chain (Fab format) V37W_W103H

- H2 L2 of H2 L2:H2 L1 (screen) [19]: 71.7
- H1 L1 of H1 L1:H1 L2 (screen) (D3H44 light chain Q38R): 66.9
- H1 L1 of H1 L1:H1 L2 (verification) (D3H44 light chain Q38R): 61.8
- H2 L1 of H2 L2:H2 L1 (screen) [20]: 27.4
- H1 L2 of H1 L1:H1 L2 (screen) (D3H44 light chain Q38D): 34.5
- H1 L2 of H1 L1:H1 L2 (verification) (D3H44 light chain Q38D): 31.1
Substance: D3H44 heavy chain (Fab format) Q39D

- H1 L2 of H1 L1:H1 L2 (screen) [19]: 30.1
- H1 L2 of H1 L1:H1 L2 (verification) [19]: 21.7
- H1 L1 of H1 L1:H1 L2 (screen) [20]: 54.8
- H1 L1 of H1 L1:H1 L2 (verification) [20]: 66.5
Substance: D3H44 heavy chain (Fab format) Q39K

- Kd [7]: 0.086 nM
Substance: D3H44 Fab Design 13 H2-L2 (H2 K145T_Q179D_S188F, L2 V133A_Q160K_T178R)

- H1 L2 of H1 L1:H1 L2 (screen) [21]: 24.1
- H1 L2 of H1 L1:H1 L2 (verification) [21]: 50.8
- H1 L1 of H1 L1:H1 L2 (screen) (D3H44 light chain F116S): 78.2
- H1 L1 of H1 L1:H1 L2 (verification) (D3H44 light chain F116S): 25.9
- H1 L1 of H1 L1:H1 L2 (screen) (D3H44 light chain F116A [14]): 55.1
- H1 L2 of H1 L1:H1 L2 (screen) [16]: 35.3
Substance: D3H44 heavy chain (Fab format) V190G

- Kd [7]: 0.071 nM
Substance: D3H44 Fab Design 15 H2-L2 (H2 K145T_Q179D_S188L, L2 Q160K_T178R)

- H2 L1 of H2 L2:H2 L1 (screen) [13]: 28.9
- H2 L2 of H2 L2:H2 L1 (screen) [15]: 51.9
Substance: D3H44 heavy chain (Fab format) A139I

- Kd [7]: 0.082 nM
Substance: D3H44 Fab Design 15 H1-L1 (H1 D146G_Q179R, L1 Q124E_Q160E_T178D)

- H1 L2 of H1 L1:H1 L2 (screen) (D3H44 light chain F98W [22]): 19.6
- H1 L2 of H1 L1:H1 L2 (screen) (D3H44 light chain F98A [23]): 8.79
- H1 L2 of H1 L1:H1 L2 (verification) (D3H44 light chain F98A [23]): 12.3
- H2 L2 of H2 L2:H2 L1 (screen) (D3H44 light chain P44W [24]): 53.1
- H2 L1 of H2 L2:H2 L1 (screen) (D3H44 light chain Y87G): 18.9
- H2 L1 of H2 L2:H2 L1 (screen) (D3H44 light chain F98L [17]): 6.38
- H2 L2 of H2 L2:H2 L1 (screen) (D3H44 light chain P44W [18]): 66.5
- H1 L1 of H1 L1:H1 L2 (screen) (D3H44 light chain P44W [25]): 53.6
- H1 L1 of H1 L1:H1 L2 (screen) (D3H44 light chain P44W [26]): 67.5
- H1 L1 of H1 L1:H1 L2 (verification) (D3H44 light chain P44W [26]): 47.1
Substance: D3H44 heavy chain (Fab format) V37A_W103H

- H2 L1 of H2 L2:H2 L1 (screen) [27]: 17.8
- H2 L1 of H2 L2:H2 L1 (verification) [27]: 19.7
- H2 L2 of H2 L2:H2 L1 (screen) (D3H44 light chain F116A [28]): 74.5
- H2 L2 of H2 L2:H2 L1 (verification) (D3H44 light chain F116A [28]): 51.4
Substance: D3H44 heavy chain (Fab format) A139W_V190A
